Drawing on PMC7102968, this text covers Kd for 1 sequence.

In general, pKd refers to the negative decadic logarithm of the Kd, by convention in mol/L. Low readings indicate a large Kd, high ones a small Kd.

The data set addresses TetR-Y42A Y42A;C68S;C88N;C121T;C144S;internal_change (UniProt P04483). The data set is described as follows: ITC. To be noted: ITC: 20 mM potassium phosphate pH 7.4, 50 mM NaCl, 25 C; EMSA: 50 mM Tris-HCl pH 8.0, 10 mM MgCl2, 25 mM NaCl, 25 ug/ml yeast tRNA, room temperature; SEC …. On the technique in general: Mobility shift assays separate free from complexed probe on a gel.

pKd: −log10 of the molar value.

The sequence “GGCCGGAGAAUGUUAUGGCGCGAAAGCGCAGAGAAAACCGGUC [TetR-binding aptamer K1]” showed a pKd of 4.86.
